Test results reported in patent US20210380657A1 (COUNCIL OF THE QUEENSLAND INSTITUTE OF MEDICAL RESEARCH, published 2021).
Where a chain is given by its changes, count along the chain named. Numbers in names are those of the source.

B1: TCR Clone 1 of Donor Y6W in Table 5 (TCR, V domains shown)
V domain 1: SLAKTTQPISMDSYEGQEVNITCSHNNIATNDYITWYQQFPSQGPRFIIQGYKTKVTNEVASLFIPADRKSSTLSLPRVSLSDTAVYYCLVVPFGGYNKLIFGAGTRLAVHP
V domain 2: SAVISQKPSRDICQRGTSLTIQCQVDSQVTMMFWYRQQPGQSLTLIATANQGSEATYESGFVIDKFPISRPNLTFSTLTVSNMSPEDSSIYLCSVGEGTSGYESYNEQFFGPGTRLTVLE
notes: also called Donor Y6W Clone 1
B2: TCR Clone 6 of Donor Y6W in Table 5 (TCR, V domains shown)
V domain 1: QKEVEQNSGPLSVPEGAIASLNCTYSDRGSQSFFWYRQYSGKSPELIMFIYSNGDKEDGRFTAQLNKASQYVSLLIRDSQPSDSATYLCAAEPFSSYKLIFGSGTRLLVRP
V domain 2: GAGVSQSPSNKVTEKGKDVELRCDPISGHTALYWYRQSLGQGLEFLIYFQGNSAPDKSGLPSDRFSAERTGGSVSTLTIQRTQQEDSAVYLCASSFIGGTGLNEQFFGPGTRLTVLE
notes: also called Donor Y6W Clone 6
B3: TCR Clone 3 of Donor Y6W in Table 5 (TCR, V domains shown)
V domain 1: GENVEQHPSTLSVQEGDSAVIKCTYSDSASNYFPWYKQELGKGPQLIIDIRSNVGEKKDQRIAVTLNKTAKHFSLHITETQPEDSAVYFCAASEFQFYFGTGTSLTVIP
V domain 2: DSGVTQTPKHLITATGQRVTLRCSPRSGDLSVYWYQQSLDQGLQFLIQYYNGEERAKGNILERFSAQQFPDLHSELNLSSLELGDSALYFCASSPGQRANTGELFFGEGSRLTVLE
notes: also called Donor Y6W Clone 3
B4: TCR Clone 1 of Donor B33 in Table 5 (TCR, V domains shown)
V domain 1: GQQVMQIPQYQHVQEGEDFTTYCNSSTTLSNIQWYKQRPGGHPVFLIQLVKSGEVKKQKRLTFQFGEAKKNSSLHITATQTTDVGTYFCAGPGTGAGSYQLTFGKGTKLSVIP
V domain 2: DVKVTQSSRYLVKRTGEKVFLECVQDMDHENMFWYRQDPGLGLRLIYFSYDVKMKEKGDIPEGYSVSREKKERFSLILESASTNQTSMYLCASIKSSGYNEQFFGPGTRLTVLE
notes: also called Donor B33 Clone 1
B5: TCR Clone 1 of Donor B5F in Table 5 (TCR, V domains shown)
V domain 1: B4 V domain 1 with G93Y, T94S
V domain 2: B4 V domain 2 with K95L
notes: also called Donor B5F Clone 1
B6: TCR Clone 2 of Donor Y6W in Table 5 (TCR, V domains shown)
V domain 1: QKEVEQNSGPLSVPEGAIASLNCTYSDRGSQSFFWYRQYSGKSPELIMFIYSNGDKEDGRFTAQLNKASQYVSLLIRDSQPSDSATYLCAVNVGNTGFQKLVFGTGTRLLVSP
V domain 2: SQTIHQWPATLVQPVGSPLSLECTVEGTSNPNLYWYRQAAGRGLQLLFYSVGIGQISSEVPQNLSASRPQDRQFILSSKKLLLSDSGFYLCACQWQGLGGELFFGEGSRLTVLE
notes: also called Donor Y6W Clone 2
B7: TCR Clone 1 of Donor P6G in Table 3 (TCR, V domains shown)
V domain 1: KQEVTQIPAALSVPEGENLVLNCSFTDSAIYNLQWFRQDPGKGLTSLLLIQSSQREQTSGRLNASLDKSSGRSTLYIAASQPGDSATYLCAVGGDDSGAGSYQLTFGKGTKLSVIP
V domain 2: DSGVTQTPKHLITATGQRVTLRCSPRSGDLSVYWYQQSLDQGLQFLIQYYNGEERAKGNILERFSAQQFPDLHSELNLSSLELGDSALYFCASSRPEGIYNEQFFGPGTRLTVLE
notes: also called Donor P6G Clone 1
B8: TCR Clone 3 of Donor T3V in Table 3 (TCR, V domains shown)
V domain 1: AGQSLEQPSEVTAVEGAIVQINCTYQTSGFYGLSWYQQHDGGAPTFLSYNALDGLEETGRFSSFLSRSDSYGYLLLQELQMKDSASYFCAVPRRNNNARLMFGDGTQLVVKP
V domain 2: EAQVTQNPRYLITVTGKKLTVTCSQNMNHEYMSWYRQDPGLGLRQIYYSMNVEVTDKGDVPEGYKVSRKEKRNFPLILESPSPNQTSLYFCASSLNTGMNTEAFFGQGTRLTVVE
notes: also called Donor T3V Clone 3
B9: TCR Clone 4 of Donor R7Z in Table 3 (TCR, V domains shown)
V domain 1: AQSVTQLDSHVSVSEGTPVLLRCNYSSSYSPSLFWYVQHPNKGLQLLLKYTSAATLVKGINGFEAEFKKSETSFHLTKPSAHMSDAAEYFCVVSYLGDTGRRALTFGSGTRLQVQP
V domain 2: EPEVTQTPSHQVTQMGQEVILRCVPISNHLYFYWYRQILGQKVEFLVSFYNNEISEKSEIFDDQFSVERPDGSNFTLKIRSTKLEDSAMYFCASSESGSPTGELFFGEGSRLTVLE
notes: also called Donor R7Z Clone 4
B10: TCR Clone 1 of Donor R7Z in Table 3 (TCR, V domains shown)
V domain 1: KQEVTQIPAALSVPEGENLVLNCSFTDSAIYNLQWFRQDPGKGLTSLLLIQSSQREQTSGRLNASLDKSSGRSTLYIAASQPGDSATYLCAVWAGGTSYGKLTFGQGTILTVHP
V domain 2: DVKVTQSSRYLVKRTGEKVFLECVQDMDHENMFWYRQDPGLGLRLIYFSYDVKMKEKGDIPEGYSVSREKKERFSLILESASTNQTSMYLCASSPAGRPGKPLHFGNGTRLTVTE
notes: also called Donor R7Z Clone 1
B11: TCR Clone 1 of Donor T3V in Table 3 (TCR, V domains shown)
V domain 1: DQQVKQNSPSLSVQEGRISILNCDYTNSMFDYFLWYKKYPAEGPTFLISISSIKDKNEDGRFTVFLNKSAKHLSLHIVPSQPGDSAVYFCAASAGGQNFVFGPGTRLSVLP
V domain 2: DAGITQSPRHKVTETGTPVTLRCHQTENHRYMYWYRQDPGHGLRLIHYSYGVKDTDKGEVSDGYSVSRSKTEDFLLTLESATSSQTSVYFCAIRRGGSSYNEQFFGPGTRLTVLE
notes: also called Donor T3V Clone 1
B12: TCR Clone 3 of Donor R7Z in Table 3 (TCR, V domains shown)
V domain 1: AQSVAQPEDQVNVAEGNPLTVKCTYSVSGNPYLFWYVQYPNRGLQFLLKYITGDNLVKGSYGFEAEFNKSQTSFHLKKPSALVSDSALYFCAVREASGANNLFFGTGTRLTVIP
V domain 2: SQTIHQWPATLVQPVGSPLSLECTVEGTSNPNLYWYRQAAGRGLQLLFYSVGIGQISSEVPQNLSASRPQDRQFILSSKKLLLSDSGFYLCAWSPQGNSPLHFGNGTRLTVTE
notes: also called Donor R7Z Clone 3
B13: TCR Clone 2 of Donor B5F in Table 3 (TCR, V domains shown)
V domain 1: GESVGLHLPTLSVQEGDNSIINCAYSNSASDYFIWYKQESGKGPQFIIDIRSNMDKRQGQRVTVLLNKTVKHLSLQIAATQPGDSAVYFCAETPGGYQKVTFGTGTKLQVIP
V domain 2: EAQVTQNPRYLITVTGKKLTVTCSQNMNHEYMSWYRQDPGLGLRQIYYSMNVEVTDKGDVPEGYKVSRKEKRNFPLILESPSPNQTSLYFCASSLWTSNSPLHFGNGTRLTVTE
notes: also called Donor B5F Clone 2
B14: TCR Clone 5 of Donor R7Z in Table 3 (TCR, V domains shown)
V domain 1: GIQVEQSPPDLILQEGANSTLRCNFSDSVNNLQWFHQNPWGQLINLFYIPSGTKQNGRLSATTVATERYSLLYISSSQTTDSGVYFCAVVGNNDMRFGAGTRLTVKP
V domain 2: DSGVTQTPKHLITATGQRVTLRCSPRSGDLSVYWYQQSLDQGLQFLIQYYNGEERAKGNILERFSAQQFPDLHSELNLSSLELGDSALYFCASSVAPWYEQYFGPGTRLTVTE
notes: also called Donor R7Z Clone 5
B15: TCR Clone 1 of Donor B5F in Table 3 (TCR, V domains shown)
V domain 1: B14 V domain 1 with V90L, G91N
V domain 2: B14 V domain 2 with A96S, P97S, Y102F, T112L
notes: also called Donor B5F Clone 1
B16: TCR Clone 2 of Donor R7Z in Table 3 (TCR, V domains shown)
V domain 1: B14 V domain 1 with G91I
V domain 2: B14 V domain 2 with W98F
notes: also called Donor R7Z Clone 2
B17: TCR Clone 1 of Donor A4T in Table 3 (TCR, V domains shown)
V domain 1: DQQVKQNSPSLSVQEGRISILNCDYTNSMFDYFLWYKKYPAEGPTFLISISSIKDKNEDGRFTVFLNKSAKHLSLHIVPSQPGDSAVYFCAASGLVEGNTPLVFGKGTRLSVIA
V domain 2: EAGVAQSPRYKIIEKRQSVAFWCNPISGHATLYWYQQILGQGPKLLIQFQNNGVVDDSQLPKDRFSAERLKGVDSTLKIQPAKLEDSAVYLCASSLFPGTGIHEQYFGPGTRLTVTE
notes: also called Donor A4T Clone 1

Each binder was assayed against HLA-A*24:02-… (human; Epstein Barr Virus) (assay: HLA-peptide multimer staining and single-cell sorting of CD8+ T cells, paired TCR sequencing).
Protocol: (§1) T cell lines were labelled with an allophycocyanin (APC)-conjugated HLA-peptide multimer (ProImmune Ltd., Oxford, UK) by incubation for 30 minutes at room temperature. Cells were then washed and incubated with Cy5.5-PerCP conjugated anti-human CD8 mAb (BioLegend, San Diego, Calif.) for 30 minutes at 4° C. Cells were washed, analyzed and sorted as single cells into 96-well PCR plates (Eppendorf, Hamburg, Germany) using the FACS Aria III flow cytometer (BD Biosciences).
B1: binds.
B2: binds.
B3: binds.
B4: binds.
B5: binds.
B6: binds.

These binders were tested against HLA-A*11:01-… (human; Epstein Barr Virus) in the same assay as above.
Protocol: as §1
B7: binds.
B8: binds.
B9: binds.
B10: binds.
B11: binds.
B12: binds.
B13: binds.
B14: binds.
B15: binds.
B16: binds.
B17: binds.
